Experimental data reported in IntAct's records for PubMed 28497574.

B1: Methylmalonic aciduria type A protein, mitochondrial (Homo sapiens), Q8IVH4 (parent)
chain: MPMLLPHPHQHFLKGLLRAPFRCYHFIFHSSTHLGSGIPCAQPFNSLGLHCTKWMLLSDGLKRKLCVQTTLKDHTEGLSDKEQRFVDKLYTGLIQGQRACLAEAITLVESTHSRKKELAQVLLQKVLLYHREQEQSNKGKPLAFRVGLSGPPGAGKSTFIEYFGKMLTERGHKLSVLAVDPSSCTSGGSLLGDKTRMTELSRDMNAYIRPSPTRGTLGGVTRTTNEAILLCEGAGYDIILIETVGVGQSEFAVADMVDMFVLLLPPAGGDELQGIKRGIIEMADLVAVTKSDGDLIVPARRIQAEYVSALKLLRKRSQVWKPKVIRISARSGEGISEMWDKMKDFQDLMLASGELTAKRRKQQKVWMWNLIQESVLEHFRTHPTVREQIPLLEQKVLIGALSPGLAADFLLKAFKSRD
partner: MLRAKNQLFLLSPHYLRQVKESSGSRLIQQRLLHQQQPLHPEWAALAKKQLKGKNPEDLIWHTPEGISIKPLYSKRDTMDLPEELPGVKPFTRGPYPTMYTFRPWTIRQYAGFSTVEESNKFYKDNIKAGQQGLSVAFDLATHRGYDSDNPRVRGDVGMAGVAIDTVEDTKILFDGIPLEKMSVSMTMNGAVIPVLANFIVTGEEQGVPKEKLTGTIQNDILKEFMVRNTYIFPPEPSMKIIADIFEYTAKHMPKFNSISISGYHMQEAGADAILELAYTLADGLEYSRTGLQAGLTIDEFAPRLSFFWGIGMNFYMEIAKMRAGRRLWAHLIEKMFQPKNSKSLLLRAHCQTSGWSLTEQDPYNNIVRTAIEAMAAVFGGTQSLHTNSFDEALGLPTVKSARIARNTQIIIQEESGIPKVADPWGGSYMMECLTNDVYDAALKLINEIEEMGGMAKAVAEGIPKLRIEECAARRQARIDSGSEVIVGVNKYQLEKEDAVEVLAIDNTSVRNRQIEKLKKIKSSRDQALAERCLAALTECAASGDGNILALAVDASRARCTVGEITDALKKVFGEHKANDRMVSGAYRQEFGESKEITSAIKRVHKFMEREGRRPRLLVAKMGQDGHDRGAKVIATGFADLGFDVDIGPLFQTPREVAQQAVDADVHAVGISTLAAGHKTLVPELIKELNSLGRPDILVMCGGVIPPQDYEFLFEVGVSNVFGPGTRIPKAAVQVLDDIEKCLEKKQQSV

Variants of: B1
Conditions: with muta_human MMUT

Variant | effect of a mutation on the interaction
MPMLLPHPHQHFLKGLLRAPFRCYHFIFHSSTHLGSGIPCAQPFNSLGLHCTKWMLLSDGLKRKLCVQTTLKDHTEGLSDKEQRFVDKLYTGLIQGQRACLAEAITLVESTHSRKKELAQVLLQKVLLYHREQEQSNKGKPLAFRVGLSGPPGAGKSTFIEYFGKMLTERGHKLSVLAVDPSSCTSGGSLLGDKTRMTELSRDMNAYIRPSPTRGTLEGVTRTTNEAILLCEGAGYDIILIETVGVGQSEFAVADMVDMFVLLLPPAGGDELQGIKRGIIEMADLVAVTKSDGDLIVPARRIQAEYVSALKLLRKRSQVWKPKVIRISARSGEGISEMWDKMKDFQDLMLASGELTAKRRKQQKVWMWNLIQESVLEHFRTHPTVREQIPLLEQKVLIGALSPGLAADFLLKAFKSRD [G218E] | disrupting interaction strength
MPMLLPHPHQHFLKGLLRAPFRCYHFIFHSSTHLGSGIPCAQPFNSLGLHCTKWMLLSDGLKRKLCVQTTLKDHTEGLSDKEQRFVDKLYTGLIQGQRACLAEAITLVESTHSRKKELAQVLLQKVLLYHREQEQSNKGKPLAFRVGLSGPPGAGKSTFIEYFGKMLTERGHKLSVLAVDPSSCTSGGSLLGDKTRMTELSRDMNAYIRPSPTRGTLGGVTRTTNEAILLCEGAGYDIILIETVGVGQSEFAVADMVDMFVLLLPPAGGDELQGIKRGIIEMADLVAVTKSDGDLIVPARRIQAEYVSALKLLRKRSQVWKPKVIRISARSGEGISEMWDKMKDFQDLMLASGELTAKGRKQQKVWMWNLIQESVLEHFRTHPTVREQIPLLEQKVLIGALSPGLAADFLLKAFKSRD [R359G] | decreasing interaction strength
MPMLLPHPHQHFLKGLLRAPFRCYHFIFHSSTHLGSGIPCAQPFNSLGLHCTKWMLLSDGLKRKLCVQTTLKDHTEGLSDKEQRFVDKLYTGLIQGQRACLAEAITLVESTHSRKKELAQVLLQKVLLYHREQEQSNKGKPLAFRVGLSGPPGAGKSTFIEYFGKMLTERGHKLSVLAVDPSSCTSGGSLLGDKTRMTELSRDMNAYIRPSPTRGTLGGVTRTTNEAILLCEGAGYDIILIETVGVGQSEFAVADMVDMFVLLLPPAGGDELQGIKRGIIEMADLVAVTKSVGDLIVPARRIQAEYVSALKLLRKRSQVWKPKVIRISARSGEGISEMWDKMKDFQDLMLASGELTAKRRKQQKVWMWNLIQESVLEHFRTHPTVREQIPLLEQKVLIGALSPGLAADFLLKAFKSRD [D292V] | disrupting interaction strength
MPMLLPHPHQHFLKGLLRAPFRCYHFIFHSSTHLGSGIPCAQPFNSLGLHCTKWMLLSDGLKRKLCVQTTLKDHTEGLSDKEQRFVDKLYTGLIQGQGACLAEAITLVESTHSRKKELAQVLLQKVLLYHREQEQSNKGKPLAFRVGLSGPPGAGKSTFIEYFGKMLTERGHKLSVLAVDPSSCTSGGSLLGDKTRMTELSRDMNAYIRPSPTRGTLGGVTRTTNEAILLCEGAGYDIILIETVGVGQSEFAVADMVDMFVLLLPPAGGDELQGIKRGIIEMADLVAVTKSDGDLIVPARRIQAEYVSALKLLRKRSQVWKPKVIRISARSGEGISEMWDKMKDFQDLMLASGELTAKRRKQQKVWMWNLIQESVLEHFRTHPTVREQIPLLEQKVLIGALSPGLAADFLLKAFKSRD [R98G] | disrupting interaction strength
MPMLLPHPHQHFLKGLLRAPFRCYHFIFHSSTHLGSGIPCAQPFNSLGLHCTKWMLLSDGLKRKLCVQTTLKDHTEGLSDKEQRFVDKLYTGLIQGQRACLAEAITLVESTHSRKKELAQVLLQKVLLYHREQEQSNKGKPLAFRVGLSGPPGAGKSTFIEYFGKMLTERGHKLSVLAVDPSSCTSGGSLLGDKTQMTELSRDMNAYIRPSPTRGTLGGVTRTTNEAILLCEGAGYDIILIETVGVGQSEFAVADMVDMFVLLLPPAGGDELQGIKRGIIEMADLVAVTKSDGDLIVPARRIQAEYVSALKLLRKRSQVWKPKVIRISARSGEGISEMWDKMKDFQDLMLASGELTAKRRKQQKVWMWNLIQESVLEHFRTHPTVREQIPLLEQKVLIGALSPGLAADFLLKAFKSRD [R196Q] | with no effect
MPMLLPHPHQHFLKGLLRAPFRCYHFIFHSSTHLGSGIPCAQPFNSLGLHCTKWMLLSDGLKRKLCVQTTLKDHTEGLSDKEQRFVDKLYTGLIQGQRACLAEAITLVESTHSRKKELAQVLLQKVLLYHREQEQSNKGKPLAFRVGLSGPPGAGKSTFIEYFGKMLTERGHKLSVLAVDPSSCTSGGSLLGDKTRMTELSRDMNAYIRPSPTRGTLGGVTRTTNEAILLCEGAGYDIILIETVGVGQSEFAVADMVDMFVLLLPPAGGDELQGIERGIIEMADLVAVTKSDGDLIVPARRIQAEYVSALKLLRKRSQVWKPKVIRISARSGEGISEMWDKMKDFQDLMLASGELTAKRRKQQKVWMWNLIQESVLEHFRTHPTVREQIPLLEQKVLIGALSPGLAADFLLKAFKSRD [K276E] | decreasing interaction strength
MPMLLPHPHQHFLKGLLRAPFRCYHFIFHSSTHLGSGIPCAQPFNSLGLHCTKWMLLSDGLKRKLCVQTTLKDHTEGLSDKEQRFVDKLYTGLIQGQRACLAEAITLVESTHSRKKELAQVLLQKVLLYHREQEQSNKGKPLAFRVGLSGPPGAGKSTFIEYFGKMLTERGHKLSVLAVDPSSCTSGGSLLGDKTRMTELSRDMNAYIRPSPTRGTLGGMTRTTNEAILLCEGAGYDIILIETVGVGQSEFAVADMVDMFVLLLPPAGGDELQGIKRGIIEMADLVAVTKSDGDLIVPARRIQAEYVSALKLLRKRSQVWKPKVIRISARSGEGISEMWDKMKDFQDLMLASGELTAKRRKQQKVWMWNLIQESVLEHFRTHPTVREQIPLLEQKVLIGALSPGLAADFLLKAFKSRD [V220M] | disrupting interaction strength

Variants of: B1
Conditions: with muta_human MMUT
Remark: another data set of the same source

Variant | effect of a mutation on the interaction
MPMLLPHPHQHFLKGLLRAPFRCYHFIFHSSTHLGSGIPCAQPFNSLGLHCTKWMLLSDGLKRKLCVQTTLKDHTEGLSDKEQRFVDKLYTGLIQGQRACLAEAITLVESTHSRKKELAQVLLQKVLLYHREQEQSNKGKPLAFRVGLSGPPGAGKSTFIEYFGKMLTERGHKLSVLAVDPSSCTSGGSLLGDKTRMTELSRDMNAYIRPSPTRGTLGGVTRTTNEAILLCEGAGYDIILIENVGVGQSEFAVADMVDMFVLLLPPAGGDELQGIKRGIIEMADLVAVTKSDGDLIVPARRIQAEYVSALKLLRKRSQVWKPKVIRISARSGEGISEMWDKMKDFQDLMLASGELTAKRRKQQKVWMWNLIQESVLEHFRTHPTVREQIPLLEQKVLIGALSPGLAADFLLKAFKSRD [T243N] | disrupting interaction strength
